The source of these data is publication PMC8718881, “Engineering of the Recombinant Expression and PEGylation Efficiency of the Therapeutic Enzyme Human Thymidine Phosphorylase” (Frontiers in Bioengineering and Biotechnology, 2021).

This data set deals with the molecule itself. Put plainly: SEC; analytical SEC; purified protein about 2 mg/ml in PBS; TSKgel G4000SWxl; mobile phase 90% phosphate buffer (50 mM sodium phosphate, 200 mM NaCl, pH 7.2) and 10% ethanol; BioRad gel filtration standard as markers. (In general: SEC sorts molecules by how far they enter the pores of the column.)

B1: HsTP^218 (human thymidine phosphorylase truncated before K34, C-terminal His6-tag) (enzyme)
chain: MGKQLPELIRMKRDGGRLSEADIRGFVAAVVNGSAQGAQIGAMLMAIRLRGMDLEETSVLTQALAQSGQQLEWPEAWRQQLVDKHSTGGVGDKVSLVLAPALAACGCKVPMISGRGLGHTGGTLDKLESIPGFNVIQSPEQMQVLLDQAGCCIVGQSEQLVPADGILYAARDVTATVDSLPLITASILSKKLVEGLSALVVDVKFGGAAVFPNQEQARELAKTLVGVGASLGLRVAAALTAMDKPLGRCVGHALEVEEALLCMDGAGPPDLRDLVTTLGGALLWLSGHAGTQAQGAARVAAALDDGSALGRFERMLAAQGVDPGLARALCSGSPAERRQLLPRAREQEELLAPADGTVELVRALPLALVLHELGAGRSRAGEPLRLGVGAELLVDVGQRLRRGTPWLRVHRDGPALSGPQSRALQEALVLSDRAPFAAPSPFAELVLPPQQ
notes: starting methionine and a glycine scar residue from cloning with the NcoI site; they precede K34 (M1-G2-K3-Q4); human thymidine phosphorylase (HsTP, TYMP), lacking the first thirty-three residues of the full-length protein; starts at K34, full-length numbering of UniProt P19971; Codon-optimized synthetic gene in pET28a; No cleavage of the His6-tag is described; also called expression-optimized …
The term stoichiometry N denotes a count of units in the complex or per binding partner. For B1, the “stoichiometry N” value was determined as 2.
